Starred links: 1 amine or outer side, 2 acyl side, 3 side chain; linkers in the order of their positions; H or OH if unused. Residues, ends and D or L forms follow the SMILES beside them. Groups on a side chain read outwards from the residue. *: point of attachment. X1 = FCCOC1CCCC2C(=CNN=C2c2ccc(CN*)cc2)CC1; Glutaryl = O=C(CCCC(=O)[*:2])[*:1]
Tests used:
[1] = biological target: T1, plasma transglutaminase factor XIII (FXIII) (Mus musculus, UniProt Q8BH61); assay: Scintillation counting of 18F-FXIII signal in hearts with or without MI; type: in vivo; settings: p<0.05
T1 sequence (Q8BH61 1-732): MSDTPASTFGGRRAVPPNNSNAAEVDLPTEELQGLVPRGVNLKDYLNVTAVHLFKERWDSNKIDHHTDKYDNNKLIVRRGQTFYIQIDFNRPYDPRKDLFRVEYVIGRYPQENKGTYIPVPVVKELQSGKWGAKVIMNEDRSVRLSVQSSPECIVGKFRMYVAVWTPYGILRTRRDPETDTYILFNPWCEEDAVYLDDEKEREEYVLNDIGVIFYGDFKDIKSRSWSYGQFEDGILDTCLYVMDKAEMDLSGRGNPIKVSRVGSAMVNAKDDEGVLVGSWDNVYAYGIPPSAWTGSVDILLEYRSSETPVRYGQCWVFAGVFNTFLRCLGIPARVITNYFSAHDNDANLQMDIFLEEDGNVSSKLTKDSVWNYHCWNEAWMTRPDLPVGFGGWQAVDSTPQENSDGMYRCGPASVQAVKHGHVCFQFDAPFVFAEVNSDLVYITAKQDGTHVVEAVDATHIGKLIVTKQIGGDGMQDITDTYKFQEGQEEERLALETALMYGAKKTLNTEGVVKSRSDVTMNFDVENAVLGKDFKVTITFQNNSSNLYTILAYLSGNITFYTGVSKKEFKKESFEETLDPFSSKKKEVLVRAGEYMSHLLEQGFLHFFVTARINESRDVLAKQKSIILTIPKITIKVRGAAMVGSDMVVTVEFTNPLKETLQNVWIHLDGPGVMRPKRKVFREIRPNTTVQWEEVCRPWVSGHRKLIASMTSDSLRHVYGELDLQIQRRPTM

[2] = B6 mice, injected i.v., n = 5, R^2 = 0.95, mean±SEM
[3] = in vivo; settings: B6, mouse, iv, SEM

CC(=O)NCC(=O)N[C@@H](CC(N)=O)C(=O)N[C@@H](CCC(N)=O)C(=O)N[C@@H](CCC(=O)O)C(=O)N[C@@H](CCC(N)=O)C(=O)N[C@H](C(=O)N[C@@H](CO)C(=O)N1CCC[C@H]1C(=O)N[C@@H](CC(C)C)C(=O)N[C@H](C(=O)N[C@@H](CC(C)C)C(=O)N[C@@H](CC(C)C)C(=O)N[C@@H](CCCCNC(=O)CCCC(=O)NCc1ccc(C2=NNC=C3CCC(OCCF)CCCC32)cc1)C(=O)N[C@@H](Cc1c[nH]c2ccccc12)C(=O)O)[C@@H](C)O)C(C)C (stereo partly drawn) [18F-FXIII] (Ac-GNQEQVSPLTLLK([Glutaryl-X1])W-OH; N-terminus and C-terminus assumed)
Signal intensity in hearts of FXIII−/− mice with MI (specificity) ([1]; day 4 after MI, comparable to non-infarcted wild-type B6 and FXIII−/− mice): significantly lower
18F-FXIII signal in the heart, B6 mice with MI compared to control mice ([1]; day 4 after coronary ligation, n = 4-5 per group): significantly higher
blood half-life [2]: 13.2 ± 0.94 min
tissue uptake at 1.25 h ([3]; blood): 0.49 ± 0.03 %ID/g
tissue uptake at 1.25 h ([3]; bone): 0.31 ± 0.03 %ID/g
tissue uptake at 1.25 h ([3]; fat): 0.17 ± 0.01 %ID/g
tissue uptake at 1.25 h ([3]; heart): 0.23 ± 0.03 %ID/g
tissue uptake at 1.25 h ([3]; intestines): 0.25 ± 0.04 %ID/g
tissue uptake at 1.25 h ([3]; kidney): 1.26 ± 0.06 %ID/g
tissue uptake at 1.25 h ([3]; liver): 2.83 ± 0.22 %ID/g
tissue uptake at 1.25 h ([3]; lymph node): 0.6 ± 0.1 %ID/g
tissue uptake at 1.25 h ([3]; muscle): 0.15 ± 0.01 %ID/g
tissue uptake at 1.25 h ([3]; skin): 0.31 ± 0.05 %ID/g
tissue uptake at 1.25 h ([3]; spleen): 0.49 ± 0.05 %ID/g
tissue uptake at 1.25 h ([3]; tail): 0.41 ± 0.03 %ID/g
